Patent US20020058619A1

Columns and labels:
[1] = target: Recombinant human Flt-1/Fc chimera (R&D Systems) (human) (UniProt P17948); assay: fluorescence plate assay; control peptide at 1 µM on immobilized Flt-1/Fc
[2] = target: Recombinant human Flt-1/Fc chimera (R&D Systems) (human) (UniProt P17948); assay: fluorescence plate assay; control peptide at 100 µM on immobilized Flt-1/Fc
[3] = target: Recombinant human Flt-1/Fc chimera (R&D Systems) (human) (UniProt P17948); assay: fluorescence plate assay; control peptide at 0 µM on immobilized Flt-1/Fc
[4] = target: Recombinant human Flt-1/Fc chimera (R&D Systems) (human) (UniProt P17948); assay: fluorescence plate assay; control peptide at 10 µM on immobilized Flt-1/Fc
[5] = target: Recombinant human Flt-1/Fc chimera (R&D Systems) (human) (UniProt P17948); assay: fluorescence plate assay; control peptide at 0.1 µM on immobilized Flt-1/Fc

Recombinant human Flt-1/Fc chimera (R&D Systems) (human), sequence (P17948 other isoform, or with tags, fused parts or gaps mutant limits assumed): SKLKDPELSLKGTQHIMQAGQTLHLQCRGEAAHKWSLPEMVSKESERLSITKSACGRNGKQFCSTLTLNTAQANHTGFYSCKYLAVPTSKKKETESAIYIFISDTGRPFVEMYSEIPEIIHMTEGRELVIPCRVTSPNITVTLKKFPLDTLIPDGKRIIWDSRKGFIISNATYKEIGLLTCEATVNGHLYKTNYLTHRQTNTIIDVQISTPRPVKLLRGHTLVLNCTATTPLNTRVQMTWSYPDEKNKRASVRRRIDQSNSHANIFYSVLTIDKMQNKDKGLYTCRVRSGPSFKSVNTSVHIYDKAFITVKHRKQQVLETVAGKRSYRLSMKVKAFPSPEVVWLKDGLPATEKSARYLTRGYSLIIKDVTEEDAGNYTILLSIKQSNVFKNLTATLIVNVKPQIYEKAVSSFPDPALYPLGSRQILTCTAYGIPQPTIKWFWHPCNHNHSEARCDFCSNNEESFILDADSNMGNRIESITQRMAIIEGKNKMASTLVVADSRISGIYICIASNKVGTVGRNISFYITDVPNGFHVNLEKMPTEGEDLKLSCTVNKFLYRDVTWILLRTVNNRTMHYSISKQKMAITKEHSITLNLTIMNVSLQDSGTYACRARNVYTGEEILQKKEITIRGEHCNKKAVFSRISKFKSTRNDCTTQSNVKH

Fluorescence [1]: 20
Fluorescence [2]: 1100
Fluorescence [3]: 0
Fluorescence [4]: 493
Fluorescence [5]: 7
Substance: Control peptide (Table 5)
